T1: HOOK3(2–552)::Strep-tag II (human, UniProt Q86VS8 2-552)
T1 construct: human Hook homolog 3 (HOOK3), residues 2-552; used for the GST pull-downs; also called Hook homolog 3; source: E. coli Rosetta, purified (Ni-NTA, TEV cleavage, Strep-Tactin; dialysis or SEC); not shown: 6xHis::MBP, N-terminal, cleaved; Strep-tag II (after linker GSGSGR), C-terminal, kept
T1 sequence (looked up): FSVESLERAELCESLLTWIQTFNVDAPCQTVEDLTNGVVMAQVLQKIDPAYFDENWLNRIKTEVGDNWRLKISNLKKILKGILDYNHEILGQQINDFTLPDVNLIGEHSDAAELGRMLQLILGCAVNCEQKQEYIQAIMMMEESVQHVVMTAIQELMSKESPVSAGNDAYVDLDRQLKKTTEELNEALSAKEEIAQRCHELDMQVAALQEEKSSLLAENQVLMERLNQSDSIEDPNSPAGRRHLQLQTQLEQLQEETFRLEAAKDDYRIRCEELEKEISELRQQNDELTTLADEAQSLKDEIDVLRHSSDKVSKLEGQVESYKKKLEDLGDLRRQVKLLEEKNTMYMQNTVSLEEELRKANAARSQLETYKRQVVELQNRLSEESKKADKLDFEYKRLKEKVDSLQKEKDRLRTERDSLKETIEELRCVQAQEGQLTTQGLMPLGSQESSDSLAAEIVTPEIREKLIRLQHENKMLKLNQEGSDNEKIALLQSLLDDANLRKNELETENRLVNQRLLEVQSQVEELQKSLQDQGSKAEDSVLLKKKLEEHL

T2: RILP(1–401)::Strep-tag II (human, UniProt Q96NA2 1-401)
T2 construct: also called RILP::Strep-tag II; source: Sf21 insect cells (baculovirus), purified (Strep-Tactin Sepharose); not shown: Strep-tag II (after linker GSGSGR), C-terminal, kept
T2 sequence (looked up): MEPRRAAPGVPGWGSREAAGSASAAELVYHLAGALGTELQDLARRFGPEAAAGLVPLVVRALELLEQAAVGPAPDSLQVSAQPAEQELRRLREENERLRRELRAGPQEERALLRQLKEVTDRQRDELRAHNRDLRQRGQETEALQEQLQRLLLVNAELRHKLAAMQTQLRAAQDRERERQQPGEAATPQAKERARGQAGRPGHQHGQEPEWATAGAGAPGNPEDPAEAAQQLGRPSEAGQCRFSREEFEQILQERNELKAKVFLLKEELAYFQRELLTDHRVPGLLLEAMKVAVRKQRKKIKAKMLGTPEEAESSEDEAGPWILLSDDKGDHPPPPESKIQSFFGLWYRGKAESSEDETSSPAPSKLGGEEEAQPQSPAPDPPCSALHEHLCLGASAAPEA

T3: NIN(1–693)::Strep-tag II (human, UniProt Q8N4C6 1-693)
T3 construct: human ninein (NIN), N-terminal fragment, residues 1-693 of 2,090; also called ninein; source: E. coli Rosetta, purified (Ni-NTA, TEV cleavage, Strep-Tactin; dialysis or SEC); not shown: 6xHis::MBP, N-terminal, cleaved; Strep-tag II (after linker GSGSGR), C-terminal, kept
T3 sequence (looked up): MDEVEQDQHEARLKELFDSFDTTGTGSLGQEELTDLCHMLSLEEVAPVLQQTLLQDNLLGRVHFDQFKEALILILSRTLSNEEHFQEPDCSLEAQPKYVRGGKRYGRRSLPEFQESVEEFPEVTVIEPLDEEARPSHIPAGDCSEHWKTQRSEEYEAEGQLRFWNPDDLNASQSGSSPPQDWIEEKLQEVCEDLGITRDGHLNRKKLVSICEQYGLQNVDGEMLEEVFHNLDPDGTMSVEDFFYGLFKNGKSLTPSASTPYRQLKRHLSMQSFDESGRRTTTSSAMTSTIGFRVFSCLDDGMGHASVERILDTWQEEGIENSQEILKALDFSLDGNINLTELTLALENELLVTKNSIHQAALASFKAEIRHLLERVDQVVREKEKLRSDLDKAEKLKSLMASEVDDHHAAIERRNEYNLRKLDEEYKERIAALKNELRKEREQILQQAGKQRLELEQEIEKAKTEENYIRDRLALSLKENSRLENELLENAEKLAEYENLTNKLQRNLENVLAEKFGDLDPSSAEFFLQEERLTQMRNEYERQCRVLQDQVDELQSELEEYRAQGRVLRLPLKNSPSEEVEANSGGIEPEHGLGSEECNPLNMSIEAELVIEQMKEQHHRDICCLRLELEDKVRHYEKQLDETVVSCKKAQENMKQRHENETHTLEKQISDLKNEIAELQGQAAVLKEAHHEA

B1: GST::LIC1(402–471)::6xHis (domain or fragment, human)
chain: WPGGSPRTPNRSVSSNVASVSPIPAGSKKIDPNMKAGATSEGVLANFFNSLLSKKTGSPGGPGVSGGSPAG
notes: single N-terminal tryptophan added in the construct; human dynein light intermediate chain 1 (DYNC1LI1), residues 402-471; source: E. coli BL21, purified (glutathione agarose, Ni-NTA; dialysis or SEC); not shown: GST, N-terminal, kept; 6xHis (after linker GSGSG), C-terminal, kept
B2: GST::LIC2(375–450)::6xHis (domain or fragment, human)
chain: WATPTRASESPARGPSGSPRTQGRGGPASVPSSSPGTSVKKPDPNIKNNAASEGVLASFFNSLLSKKTGSPGSPGAG
notes: single N-terminal tryptophan added in the construct; source: E. coli BL21, purified (glutathione agarose, Ni-NTA; dialysis or SEC); not shown: GST, N-terminal, kept; 6xHis (after linker GSGSG), C-terminal, kept
B3: GST::LIC2(375–492)::6xHis (domain or fragment, human)
chain: WATPTRASESPARGPSGSPRTQGRGGPASVPSSSPGTSVKKPDPNIKNNAASEGVLASFFNSLLSKKTGSPGSPGAGGVQSTAKKSGQKTVLSNVQEELDRMTRKPDSMVTNSSTENEA
notes: single N-terminal tryptophan added in the construct; also called LIC2-C; source: E. coli BL21, purified (glutathione agarose, Ni-NTA; dialysis or SEC); not shown: GST, N-terminal, kept; 6xHis (after linker GSGSG), C-terminal, kept
B4: GST::LIC1(414–471)::6xHis (domain or fragment, human)
chain: WSSNVASVSPIPAGSKKIDPNMKAGATSEGVLANFFNSLLSKKTGSPGGPGVSGGSPAG
notes: single N-terminal tryptophan added in the construct; human dynein light intermediate chain 1 (DYNC1LI1), residues 414-471; source: E. coli BL21, purified (glutathione agarose, Ni-NTA; dialysis or SEC); not shown: GST, N-terminal, kept; 6xHis (after linker GSGSG), C-terminal, kept

These binders were tested against T4, BICD2(2–422)::Strep-tag II (human, UniProt Q8TD16 2-422) (assay: pull-down; GST::LIC::6xHis (50 pmol) with 50 or 250 pmol adaptor and glutathione agarose, 1 h at 4°C, 150 μL of 50 mM HEPES, 100 mM NaCl, 5 mM DTT, pH 7.5, 0.1% Tween 20; Coomassie staining and immunoblot against Strep-tag II). Settings: both partners purified.
T4 construct: human bicaudal D homolog 2 (BICD2), N-terminal region, residues 2-422; also called bicaudal D homolog 2; source: E. coli BL21, purified (Ni-NTA, TEV cleavage, Strep-Tactin; dialysis or SEC); not shown: 6xHis::MBP, N-terminal, cleaved; Strep-tag II (after linker GSGSGR), C-terminal, kept
T4 sequence (Q8TD16 2-422): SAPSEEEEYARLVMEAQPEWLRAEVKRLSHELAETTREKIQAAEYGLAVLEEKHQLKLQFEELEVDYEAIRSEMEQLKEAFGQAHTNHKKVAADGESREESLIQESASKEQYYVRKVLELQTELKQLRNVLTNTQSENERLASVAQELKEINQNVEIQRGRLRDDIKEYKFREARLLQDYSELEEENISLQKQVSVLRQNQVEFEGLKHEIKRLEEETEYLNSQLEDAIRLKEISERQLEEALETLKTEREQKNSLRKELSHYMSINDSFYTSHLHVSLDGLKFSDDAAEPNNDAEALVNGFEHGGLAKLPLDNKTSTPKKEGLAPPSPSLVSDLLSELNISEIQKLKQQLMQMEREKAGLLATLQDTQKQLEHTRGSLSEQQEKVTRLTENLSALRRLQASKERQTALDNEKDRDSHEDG

Does B1 bind?
Result: binds

Does B2 bind?
Result: binds

Does B3 bind?
Result: binds

Does B4 bind?
Result: binds

Each binder was assayed against T1, HOOK3(2–552)::Strep-tag II in the same assay as above. Settings: both partners purified.

Does B1 bind?
Result: binds

Does B2 bind?
Result: binds

Does B3 bind?
Result: binds

Does B4 bind?
Result: binds

These binders were tested against T2, RILP(1–401)::Strep-tag II in the same assay as above. Settings: both partners purified.

Does B1 bind?
Result: binds

Does B2 bind?
Result: binds

Does B3 bind?
Result: binds

Does B4 bind?
Result: binds

These binders were tested against T3, NIN(1–693)::Strep-tag II in the same assay as above. Settings: both partners purified.

Does B1 bind?
Result: binds

Does B2 bind?
Result: binds

Does B3 bind?
Result: binds

Does B4 bind?
Result: binds

From article PMC6336354, “A transient helix in the disordered region of dynein light intermediate chain links the motor to structurally diverse adaptors for cargo transport” (PLoS Biology, 2019)
